Data taken from patent publication WO2019096294A1.

Target: His-tagged human prothrombin (human) (UniProt P00734)
Assay: binding ELISA; His-tagged human prothrombin coated on plate

- EC50: 0.282 µg/mL
Substance: Ichorcumab (antibody)
